Test [1] has as its target KpBest, bacterial homolog of human bestrophin 1 (not stated (bacterial)).
Test [2] concerns the target voltage-gated Ca^2+ channel complex. The test is described as follows: FRET or BRET.

With “KpBest, bacterial homolog of human bestrophin 1 (natural protein)”, the stoichiometry N in test [1] is 5.

In test [2], “calmodulin (from UniProt P0DP23 1-149) (natural protein)” gave a stoichiometry N of 1.
